The values that follow come from US20150329824A1 (NATIONAL CHENG KUNG UNIVERSITY, published 2015).

In the test the target is T1, membrane hyaluronidase Hyal-2 on spleen cells of NOD-SCID mice (mouse (spleen cells of NOD-SCID mice), UniProt O35632 21-448).
T1 construct: whole, on cells; Endogenous protein on mouse spleen cells, detected with an antibody against Hyal-2; also called hyaluronidase-2
T1 sequence (looked up): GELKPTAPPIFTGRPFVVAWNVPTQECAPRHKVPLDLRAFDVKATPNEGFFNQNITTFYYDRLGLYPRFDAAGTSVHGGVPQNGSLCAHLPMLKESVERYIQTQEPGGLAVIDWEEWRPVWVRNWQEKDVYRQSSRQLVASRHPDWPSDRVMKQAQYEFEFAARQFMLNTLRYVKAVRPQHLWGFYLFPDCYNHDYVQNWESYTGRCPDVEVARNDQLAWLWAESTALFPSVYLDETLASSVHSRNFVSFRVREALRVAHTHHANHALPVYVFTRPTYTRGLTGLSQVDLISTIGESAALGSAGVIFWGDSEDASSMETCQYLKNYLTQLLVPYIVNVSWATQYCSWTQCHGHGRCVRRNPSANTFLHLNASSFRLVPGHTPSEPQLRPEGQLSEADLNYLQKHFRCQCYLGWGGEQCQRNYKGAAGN
As to the kind of experiment: epifluorescence and confocal microscopy of NOD-SCID spleen cells stained with TMR-Zfra1-31 and Hyal-2 antibody. The method, then:
FIG. 2 includes photos showing the identification of Zfra⁺ Hyal-2⁺ spleen cells. A and B: Spleen cells of NOD-SCID mice were isolated and stained with synthesized peptide TMR-Zfra₁₋₃₁ and Hyal-2 (green fluorescence) antibody for 30 minutes on ice, and then fixed with 4% formaldehyde. Zfra bound to membrane hyaluronidase Hyal-2, as determined by epifluorescence and confocal microscopy.
In this example, spleen cells were isolated from immune deficient NOD-SCID mice, which are deficient in T and B lymphocytes and NK cells. The isolated spleen cells were stained with antibody against Hyal-2 (green) and TMR-Zfra (Zfra₁₋₃₁ labeled with red fluorescent tetramethylrodamine) for 30 minutes on ice, and then fixed with 4% formaldehyde (FIG. 2). […] These Hyal-2⁺ Zfra⁺ positive cells are interchangeably referred to as “Z cells,” for cells interacting with Zfra.

No end group written: not given here.

B1: TMR-Zfra1-31 (Zfra1-31 labeled with red fluorescent tetramethylrodamine) (peptide)
peptide: MSSRRSSSCKYCEQDFRAHTQKNAATPFLAN
modifications: cysteine pairing not given here; also: tetramethylrhodamine (TMR) label, position not given here
notes: Synthesized full-length Zfra peptide with a TMR label, used to stain spleen cells; also called Tetramethylrhodamine-Zfra
Turning to B1, the binding result is given as “binds”.
